Consider 20 sequences from the DeepSol protein solubility set.

A short description of this data set: soluble on expression in E. coli; label from the status in PepcDB or PDB records.
Turning to “MSLKQYKILLIVADGLGDRPVSKLNGLTPLEAANKPAITDLLKNSMIGLMDPISPGIIPGSDTSHLSIFGLDPHVYYRGRGAFEALGAGATLSHGDVAFRGNFATVNNDLVVVDRRAGRKLEEGEQLVKELNEKIKEINDVKIKFYKGTEHRIAVVLSGKGISDKVSDTDPHHEGLKVLESKPLEDSNEAIRTAEIINILTRKVFDVLNSSEINKRRIEQGEKPANIVLLRGAAHYVKLPPFSSYTKLKAAAVSATALIKGICRELGMNVITPSGATGGIDTNYNAKAKAAIELLKENDFVFLHIKATDAASHDGLVEEKVKAIERIDRVIGAIIDNIGRDNLILMFTGDHVTPVEIKEHTGDPVPVLLYVPYPIINDNVGDFNEKEARKGSLRIRGLDVTNILLNYSNRAEKYGSEGHHHHHH”, the “soluble on expression in E. coli” value is recorded as “soluble”. For the sequence “GSSHHHHHHSSGLVPRGSHMQTTNAVDLGNPDLYTTLERHARWRELAAEDAMVWSDPGSSPSGFWSVFSHRACAAVLAPSAPLTSEYGMMIGFDRDHPDNSGGRMMVVSEHEQHRKLRKLVGPLLSRAAARKLAERVRIEVGDVLGRVLDGEVCDAATAIGPRIPAAVVCEILGVPAEDEDMLIDLTNHAFGGEDELFDGMTPRQAHTEILVYFDELITARRKEPGDDLVSTLVTDDDLTIDDVLLNCDNVLIGGNETTRHAITGAVHALATVPGLLTALRDGSADVDTVVEEVLRWTSPAMHVLRVTTADVTINGRDLPSGTPVVAWLPAANRDPAEFDDPDTFLPGRKPNRHITFGHGMHHCLGSALARIELSVVLRVLAERVSRVDLEREPAWLRAIVVQGYRELPVRFTGR”, the “soluble on expression in E. coli” value is recorded as “soluble”.

In the case of “MSLYNKVLIIDDHPVLRFAVRVLMEKEGFEVIGETDNGIDGLKIAREKIPNLVVLDIGIPKLDGLEVIARLQSLGLPLRVLVLTGQPPSLFARRCLNSGAAGFVCKHENLHEVINAAKAVMAGYTYFPSTTLSEMRMGDNAKSDSTLISVLSNRELTVLQLLAQGMSNKDIADSMFLSNKTVSTYKTRLLQKLNATSLVELIDLAKRNNLAEGHHHHHH”, the “soluble on expression in E. coli” value was “not soluble”. The same measure for “MTNWLIAYQGEPGAYSEIAALRFGEPLPCESFDDVFSAVTEQKADYAVIPIENSLGGSIHQNYDLLLRRPVVILAETFVKVEHCLLGLPGASVETATKAMSHPQALVQCHNFFATHPQIRAEAAYDTAGSAKMVAESRDKSALAIASKRAGELYGLDILKENLADEEWNITRFFCIAHENNPDISHLKVRPDVARQKTSIVFALPNEQGSLFRALATFALRGIDLTKIESRPSRKKAFEYLFYADFIGHREDQNVHNALENLREFATMVKVLGSYGVVNP”: “soluble”.

As to “MGSDKIHHHHHHMHILFLTHYFPPEVNAPASRTYENARRWVRDGHHVTVITCAPNHPKGVIYPGYRNRWCQQEDLDGIRVLRVKTYLSANKGFAKRIANYLSYMLSSTVFSCLVRDIDVVVSTSPQFFCGLAGYFVSRARSAPWVVEIRDLWPESIIAVGAIRNRTVIDLLEGLETFMYRRADHVVAVTDAFKRHIAGRGVGRDRISVIKNGADLERFTSGPRENSFRREHGLEGKFVVSYVGTHGMAHGLNTIFETAEAMRSCEDIVFLLVGDGAEREPLLARKAELGLTNVLMLPQQPKERMPEIINASDACMVLLKKTDLFKTVIPSKIFEAMAMERPIILGVEGESREIVEEGCCGLCIEPENAAELADAIRRLRDDGKLADELGQNGRRFVSAVFNREVLARRYLETLSSMVPLPASTIGVIGKELP”, the “soluble on expression in E. coli” value is on record as “not soluble”. The same measure for “MERRSVQKKELLSTPVVPIDIKAFDAGPILEAMGKTAFQARNLHRAAEIYLRMLEDDCAVILTLAGSLVSAGQGLIVHDLIRKGLVDVIVATGANIVDQDFFEALGHRHYQGDPRADDEALRRLWIDRIYDTYIDEEELRHTDYTVAEIADGLEPRPYSSREFIWQMGRYLAERGLGEKRIVRRAYEKGVPIFVTAFSDSSAGFGLVYHQVKRPEAHVTIDSVADFRELTEIKLKAGTTGLVMLGGGVPKNFAQDIVVAAEVLGHRVEMHKYAIQITVADERDGGLSGSTLSEAQSWGKVDARLSQMVFAEATLAFPLLASYVWHRAPARAKRRYAELFREKAPA”: “soluble”; for “MYLKARQDELTESTIQSQEYRLEAFEQFCREEGIENLNDLSGRDLYAYRVWRREGNGKGRDEIEPITLRGQLATVRSFLRFAAEVDAVPEDLRTKVPLPTILEHHHHHH”: “not soluble”. Next, “MVSDEDELNLLVIVVDANPIWWGKQALKESQFTLSKCIDAVMVLGNSHLFMNRSNKLAVIASHIQESRFLYPGKNGRLGDFFGDPGNPPEFNPSGSKDGKYELLTSANEVIVEEIKDLMTKSDIKGQHTETLLAGSLAKALCYIHRMNKEVKDNQEMKSRILVIKAAEDSALQYMNFMNVIFAAQKQNILIDACVLDSDSGLLQQACDITGGLYLKVPQMPSLLQYLLWVFLPDQDQRSQLILPPPVHVDYRAACFCHRNLIEIGYVCSVCLSIFCNFSPICTTCETAFKISLPPVLKAKKRN”: “soluble”; “MEGSHHHHHHSQAQSKAQVLQSVAGQTLTVRCQYPPTGSLYEKKGWCKEASALVCIRLVTSSKPRTMAWTSRFTIWDDPDAGFFTVTMTDLREEDSGHYWCRIYRPSDNSVSKSVRFYLVVS”: “soluble”; “GSHMLESSAEESLAYREDDLRGRLGKVITAVPVDGFGEVVIEGIGGTISKSAVSFDNQQISYGTTVLVVDINNGVLSVTPHEPI”: “soluble”. Next, “MNMKATALTATTVAIASLLPSMGETNVQKANAEQLSNIKTGYVKVDQVALHTEDNVKSTSIDTIRFNTKVNIIETTNGWYKVSVHNKVGYVQKDAILLKNKLQSNDQYIVNANALNVRSEPNLESSILDVLPNGKFITVQEDQGEWYKISHNGQTGYVQKAFISNGSQPLVKGITVQNNTKYTVATPNLNVRSTASTSSALLGSLQNGTQVQVVETVGTWYKIRFGTGYGYVAKHYVVQNQPQAKTDQPSSIPAAFKFPAQGRISSTFDIRWEQMHYGIDIAAPGNVSIQAAAAGKVVKSYYSASYGNVVFIAHQINGKLYTTVYAHMKDRTVQAGDQVQTGQLIGHMGNTGHSYGQHLHCELHNGEWNFEKTDAVNPLPYLVRLEHHHHHH”: “soluble”. Regarding “MRIVYCISGTCNSGGMERVLSNKANYLAAHGYEVTIVTTDQRGRRPFFALDGRIECVDLDVNYETNNGKSFFNKLVHYPFKQLKHKRRLTKVLNLIKPDITVSMFCNDVAFLPSIQDGSKKVLEVHFSRFKRLQYDRKGLWRLADKWRNRNEQRQVACFDKFVVLTHEDKDYWEGHANIEVIPNAQTFACDVPAALESKTVVAVGRYTYQKGFDMLLRAWRRVCDSIDDWQLHIVGEGEMKESLQQQILDLSLEDRVELCPATSDIQSVYREASVLVLSSRYEGFGMVLLEAQTAGVPTVSFDCKCGPSDIVADGVTGYLVPANDIPALAEKLLVLMRDETLRKQMGRNAFADASRFSEKAVMQRWTDLFENFR”, the “soluble on expression in E. coli” value was “not soluble”. Next, “MGSDKIHHHHHHMVVLHSKGGFFLEILKVVDLKKHYGDVKAVDGISFTVERGTVFSFLGPNGAGKTTTVEILEGLRKKDSGEIYYFGERKDVLDRETKRKIGVCLQKSAFFENLTVWETLKLFRGLYGTGLDLKEVMGLFSLENIEKKMVKTLSGGQLQRLAVAVAFINDPEIVFLDEPTTGLDPQARRQIWDTIEHFKNLGKTIFLTTHYMEEAERLSDHVCIIDHGKIIAEGTPSSLISSSGLKTVVEFDCDQDVNVRYLEKKENHYVVETDAPEELIKDLLKNWNVSNIVIRKPNLEDVFLKLTGRDLRE”: “not soluble”; “MAHHHHHHMACDDSTKRNAAAVNRLLQKTRAATAPNSQWLNSITRREDGTLSNELHLSNQQRLACEMGVFPKGHFGDVEIEEENPQRSCHALAQRRARHEWKTDEEAKRRLQIGRGEVCNKRELRAAARREAAILRYEMTLPRRRVVGHLSHLMPAQADASLAVPTEGAADALVEKGCGRWVLHNSYRQQLLHGEPVMTRIMRGEFYETKPPPQRKKKVWAAGKRHVRMTSEVNRLMNTGGWCR”: “not soluble”; “MTDVEIKAENGSGDASLEPENLRKIFVGGLTSNTTDDLMREFYSQFGEITDIIVMRDPTTKRSRGFGFVTFSGKTEVDAAMKQRPHIIDGKTVDPKRAVPRDDKNRSESNVSTKRLYVSGVREDHTEDMLTEYFTKYGTVTKSEIILDKATQKPRGFGFVTFDDHDSVDQCVLQKSHMVNGHRCDVRKGLSKDEMSKAQMNRDRETRGGRSRDGQRGGYNGGGGGGGGWGGPAQRGGPGAYGGPGGGGQGGYGGDYGGGWGQQGGGGQGGWGGPQQQQGGGGWGQQGGGGQGGWGGPQQQQQGGWGGPQQGGGGGGWGGQGQQQGGWGGQSGAQQWAHAQGGNRNY”: “not soluble”. Next, “MLNPDELVAIDIHTHAEEPCGCHADDGYDDFQARMAEYFGSPNKHPPTVPETAAYYRAKKIAAVIFPVDAERETGFRRYNNDEMIEITRQNSDVLIPFASIDPHKGKIGVREARRLIADYGIKGFKFHPTMQGFYANDRLAYPLYEAIQEGGAIALFHTGQTGVGSGMPGGMGMRLKYSNPMYMDDVAADFPDMKIVLAHPSFPWQEEALSVATHKPNVYIDLSGWSPKYFPPILVRYINSILQDKMLFGSDWPVITPDRWLSDFAKLEIREEVRAKVLKQNARKLLGIAAALEHHHHHH”: “not soluble”. The same measure for “MGSDKIHHHHHHMKAPEGIACGKRQLVVSDTGGGRLLSYSIENGSVRGGTEIKAEQVPYPTKVQLTSKGEILVIDGKLRRIAHFSPEGSFAGYLDLKGVPAPATIAPRGIRVDDKDNIHILDIFGARVIVTDAAGTFQSQMPFPEGYRFISDLAVSASGTTLLLDSVASRVYAAARGETAFKPLTDGMKEYLQFPTSIATDKQGKIFILDQTGNAVVTLGQDGSFQGRQLNIGWKNSFLHYPSQLCISEENDIDVVIADRNNNRIQVFRVVR”: “not soluble”. As for “MTNNQTLDILLDVYAYNHAFRIAKALPNIPKTALYLLEMLKERRELNLAFLAEHAAENRTIEDQYHCSLWLNQSLEDEQIANYILDLEVKVKNGAIIDFVRSVSPILYRLFLRLITSEIPNFKAYIFDTKNDQYDTWHFQAMLESDHEVFKAYLSQKQSRNVTTKSLADMLTLTSLPQEIKDLVFLLRHFEKAVRNPLAHLIKPFDEEELHRTTHFSSQAFLENIITLATFSGVIYRREPFYFDDMNAIIKKELSLWRQSIV”, the “soluble on expression in E. coli” value is “not soluble”. In the case of “MGSDKIHHHHHHMKVFDVHKFDMKKEQDFLQVQFNLKNRINLSPTIHPDSINTGAGVDLAYWEQDGEPYGVCCIIVIDADTKEVIEKVHSMGRISVPYVSGFLAFRELPLIIEAAKKLETEPDVFLFDGNGYLHYNHMGVATHAAFFLGKPTIGIAKTYLKIKGCDFVTPEIEVGAYTDIIIDGEVYGRALRTRRDVKPIFLSCGNYIDLDSSYQITMSLINQESRLPIPVRLADLETHVLRTFYQKNHV”, the “soluble on expression in E. coli” value was “not soluble”.

For the sequence “GPGSMLVSYLRLQADRRTRHHMMVDGQINPREWFNWHPKEYQPWYFDRHKFLYEQRQYAQFHHLLCHQVYLKDMLHLMRYPEPYTHIIDCRTSTQKMHRWVPHSLWLPRDEVEYALQLSADEFLDMYGFRKPDKSDDVILLSHNGIYSEQAGWEWKKQFFQHVYNYRGGTNELFGESYSDMNVSDVLSPWKGPFPQSGVFVDKWSKRKVLTRTGPFDRQYEMQDFALPDLELEKARHPEEGPRQNMPFGLQ”, the “soluble on expression in E. coli” value is on record as “not soluble”.
